“Also recorded” adds a separate entry of the source.
How the values were obtained:
[1] = target: purified human LDL, carrying apolipoprotein B100 (human) (UniProt P04114); experiment: Western blot of covalent assembly of 5 nM 17K r-apo(a) with 100 nM LDL, 8 h
[2] = target: purified human LDL, carrying apolipoprotein B100 (human) (UniProt P04114); experiment: Western blot of covalent assembly of 5 nM 17K r-apo(a) with 100 nM LDL, 8 h, orticumab at '1' (unit missing, by context 1 µM)
[3] = target: purified human LDL, carrying apolipoprotein B100 (human) (UniProt P04114); experiment: Western blot of covalent assembly of 5 nM 17K r-apo(a) with 100 nM LDL, 8 h, 0.1 µM orticumab
[4] = target: purified human LDL, carrying apolipoprotein B100 (human) (UniProt P04114); experiment: Western blot of covalent assembly of 5 nM 17K r-apo(a) with 100 nM LDL, 8 h, 10 µM orticumab
[5] = target: T1, covalent binding between apo(a) and LDL (Lp(a) formation) (Homo sapiens, UniProt P04114); experiment: Covalent Lp(a) assembly assay, Western blot (% r-Lp(a)); type: biochemical; details: for percent inhibition of Lp(a) formation: FIG. 10; for Reduction of covalent Lp(a) compared with control antibodies: 4 hours, orticumab 0.01-10 μM, FIG. 8
T1 construct: made in house; host or cells: apo(a): stably-expressing HEK293 cell lines; LDL: plasma of a healthy donor
T1 sequence (P04114 28-4563): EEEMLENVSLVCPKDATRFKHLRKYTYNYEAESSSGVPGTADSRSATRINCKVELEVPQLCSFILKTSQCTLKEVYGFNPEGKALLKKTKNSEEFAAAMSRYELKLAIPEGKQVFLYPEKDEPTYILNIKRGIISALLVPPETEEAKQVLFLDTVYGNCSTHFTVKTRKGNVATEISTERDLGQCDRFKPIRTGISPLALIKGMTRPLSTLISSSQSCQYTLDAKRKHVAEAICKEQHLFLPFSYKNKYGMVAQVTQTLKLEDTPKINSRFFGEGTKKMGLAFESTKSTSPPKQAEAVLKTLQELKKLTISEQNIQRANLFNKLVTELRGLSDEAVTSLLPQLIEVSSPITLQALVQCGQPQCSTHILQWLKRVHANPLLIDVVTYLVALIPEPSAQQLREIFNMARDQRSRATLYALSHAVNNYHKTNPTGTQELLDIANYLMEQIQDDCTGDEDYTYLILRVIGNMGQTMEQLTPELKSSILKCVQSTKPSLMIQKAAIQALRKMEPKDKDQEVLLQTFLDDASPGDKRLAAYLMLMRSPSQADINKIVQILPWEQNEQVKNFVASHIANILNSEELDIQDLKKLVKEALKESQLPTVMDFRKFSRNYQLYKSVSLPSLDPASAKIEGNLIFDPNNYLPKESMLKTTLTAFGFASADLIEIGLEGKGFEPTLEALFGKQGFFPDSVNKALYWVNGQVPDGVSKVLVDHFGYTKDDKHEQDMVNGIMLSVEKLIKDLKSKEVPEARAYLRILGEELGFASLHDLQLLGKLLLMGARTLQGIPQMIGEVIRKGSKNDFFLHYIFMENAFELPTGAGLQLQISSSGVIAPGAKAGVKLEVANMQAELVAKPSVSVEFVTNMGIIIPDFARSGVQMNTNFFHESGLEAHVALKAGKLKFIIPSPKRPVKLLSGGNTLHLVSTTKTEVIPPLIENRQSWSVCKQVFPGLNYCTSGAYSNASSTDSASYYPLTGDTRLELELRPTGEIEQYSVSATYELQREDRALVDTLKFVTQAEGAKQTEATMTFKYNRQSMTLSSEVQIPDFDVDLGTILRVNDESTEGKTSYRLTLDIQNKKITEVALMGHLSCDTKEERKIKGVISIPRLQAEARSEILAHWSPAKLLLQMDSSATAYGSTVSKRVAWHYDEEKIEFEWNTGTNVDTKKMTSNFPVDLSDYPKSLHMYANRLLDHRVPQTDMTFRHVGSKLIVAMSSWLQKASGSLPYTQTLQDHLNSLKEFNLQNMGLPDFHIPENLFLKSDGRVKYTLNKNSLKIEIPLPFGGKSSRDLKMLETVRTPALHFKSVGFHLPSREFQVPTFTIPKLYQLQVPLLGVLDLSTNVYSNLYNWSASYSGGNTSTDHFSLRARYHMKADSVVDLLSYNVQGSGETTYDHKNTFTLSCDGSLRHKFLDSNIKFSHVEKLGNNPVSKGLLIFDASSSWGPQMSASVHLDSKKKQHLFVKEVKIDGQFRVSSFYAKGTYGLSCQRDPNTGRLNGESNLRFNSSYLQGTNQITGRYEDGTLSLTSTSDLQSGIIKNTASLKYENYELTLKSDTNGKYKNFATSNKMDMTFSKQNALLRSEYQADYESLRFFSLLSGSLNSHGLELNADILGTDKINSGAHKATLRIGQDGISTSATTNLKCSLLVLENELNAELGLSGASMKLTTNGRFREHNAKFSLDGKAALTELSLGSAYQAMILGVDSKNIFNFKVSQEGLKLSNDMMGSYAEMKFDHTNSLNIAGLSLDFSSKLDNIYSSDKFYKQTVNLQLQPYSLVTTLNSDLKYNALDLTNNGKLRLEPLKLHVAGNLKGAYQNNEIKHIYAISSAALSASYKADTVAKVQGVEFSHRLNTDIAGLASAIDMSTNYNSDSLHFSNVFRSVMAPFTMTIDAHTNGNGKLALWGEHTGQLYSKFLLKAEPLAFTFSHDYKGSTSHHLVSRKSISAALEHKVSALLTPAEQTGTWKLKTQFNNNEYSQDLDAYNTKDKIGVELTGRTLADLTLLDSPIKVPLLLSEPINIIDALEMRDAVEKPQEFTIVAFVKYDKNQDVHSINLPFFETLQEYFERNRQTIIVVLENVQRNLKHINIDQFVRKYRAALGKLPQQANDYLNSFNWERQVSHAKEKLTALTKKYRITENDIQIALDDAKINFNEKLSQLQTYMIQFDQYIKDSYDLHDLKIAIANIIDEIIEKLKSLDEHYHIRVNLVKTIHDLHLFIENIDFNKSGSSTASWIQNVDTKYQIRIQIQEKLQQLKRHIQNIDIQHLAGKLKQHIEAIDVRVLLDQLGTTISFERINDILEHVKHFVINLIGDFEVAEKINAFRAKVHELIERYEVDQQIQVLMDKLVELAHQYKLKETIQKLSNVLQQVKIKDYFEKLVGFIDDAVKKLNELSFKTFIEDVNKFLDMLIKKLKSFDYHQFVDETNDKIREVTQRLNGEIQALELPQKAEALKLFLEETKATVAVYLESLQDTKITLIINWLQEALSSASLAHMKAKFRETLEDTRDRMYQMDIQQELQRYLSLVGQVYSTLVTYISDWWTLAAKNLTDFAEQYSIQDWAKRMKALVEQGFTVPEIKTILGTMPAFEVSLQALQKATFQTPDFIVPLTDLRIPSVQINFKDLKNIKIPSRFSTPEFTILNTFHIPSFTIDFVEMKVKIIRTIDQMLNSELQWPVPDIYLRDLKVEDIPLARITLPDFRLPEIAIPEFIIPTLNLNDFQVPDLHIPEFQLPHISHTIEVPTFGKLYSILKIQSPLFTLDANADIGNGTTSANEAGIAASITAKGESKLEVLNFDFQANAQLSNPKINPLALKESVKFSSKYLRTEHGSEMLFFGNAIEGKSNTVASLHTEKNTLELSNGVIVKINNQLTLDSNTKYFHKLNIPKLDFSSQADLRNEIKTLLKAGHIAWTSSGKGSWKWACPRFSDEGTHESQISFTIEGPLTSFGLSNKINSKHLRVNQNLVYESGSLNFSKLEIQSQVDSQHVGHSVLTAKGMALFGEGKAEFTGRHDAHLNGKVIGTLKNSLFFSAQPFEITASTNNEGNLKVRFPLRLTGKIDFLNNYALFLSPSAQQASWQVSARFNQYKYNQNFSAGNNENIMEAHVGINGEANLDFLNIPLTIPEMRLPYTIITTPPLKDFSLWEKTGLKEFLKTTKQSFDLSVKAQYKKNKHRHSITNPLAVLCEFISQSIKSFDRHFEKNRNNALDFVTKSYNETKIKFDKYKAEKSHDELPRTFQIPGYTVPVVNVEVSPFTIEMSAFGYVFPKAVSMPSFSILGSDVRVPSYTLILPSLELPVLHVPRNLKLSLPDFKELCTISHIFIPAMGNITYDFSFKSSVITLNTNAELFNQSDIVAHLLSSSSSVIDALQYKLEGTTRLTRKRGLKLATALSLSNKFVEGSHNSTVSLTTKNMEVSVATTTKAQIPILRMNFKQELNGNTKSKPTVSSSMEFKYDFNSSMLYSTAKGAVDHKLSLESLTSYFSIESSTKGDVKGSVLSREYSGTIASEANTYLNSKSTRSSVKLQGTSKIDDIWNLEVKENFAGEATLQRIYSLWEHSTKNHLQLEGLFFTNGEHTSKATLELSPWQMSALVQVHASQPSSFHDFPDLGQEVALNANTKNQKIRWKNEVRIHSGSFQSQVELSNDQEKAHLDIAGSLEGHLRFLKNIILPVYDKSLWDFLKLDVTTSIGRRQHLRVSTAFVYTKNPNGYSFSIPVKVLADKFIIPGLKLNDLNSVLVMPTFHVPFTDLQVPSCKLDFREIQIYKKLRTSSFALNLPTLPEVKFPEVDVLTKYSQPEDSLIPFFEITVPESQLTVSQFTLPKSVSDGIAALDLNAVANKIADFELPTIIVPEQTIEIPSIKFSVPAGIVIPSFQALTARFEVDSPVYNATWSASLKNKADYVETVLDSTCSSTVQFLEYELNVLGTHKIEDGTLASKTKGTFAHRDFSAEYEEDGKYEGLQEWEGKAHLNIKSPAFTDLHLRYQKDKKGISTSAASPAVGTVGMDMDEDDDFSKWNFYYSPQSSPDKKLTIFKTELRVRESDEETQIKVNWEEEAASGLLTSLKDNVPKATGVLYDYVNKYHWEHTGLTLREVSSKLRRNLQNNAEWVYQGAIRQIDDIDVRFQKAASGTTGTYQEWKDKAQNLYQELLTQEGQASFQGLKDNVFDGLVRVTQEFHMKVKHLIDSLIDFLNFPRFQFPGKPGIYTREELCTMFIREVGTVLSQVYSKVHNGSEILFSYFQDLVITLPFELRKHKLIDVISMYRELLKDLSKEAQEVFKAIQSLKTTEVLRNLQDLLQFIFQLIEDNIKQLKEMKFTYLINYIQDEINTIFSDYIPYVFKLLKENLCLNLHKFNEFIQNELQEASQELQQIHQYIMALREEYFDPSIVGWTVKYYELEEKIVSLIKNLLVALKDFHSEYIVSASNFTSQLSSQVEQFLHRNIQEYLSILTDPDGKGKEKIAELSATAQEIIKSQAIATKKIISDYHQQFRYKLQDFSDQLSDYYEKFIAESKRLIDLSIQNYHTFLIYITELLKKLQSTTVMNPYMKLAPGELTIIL
Experimental: Purified LDL (100 nM) and 17K apo(a) (5 nM) were incubated with conditioned serum-free medium (OptiMEM; Gibco) from HEK293 cells in the presence of 0, 0.01, 0.1, 1.0, and 10 μM of orticumab at 37° C. The reactions were mixed thoroughly every hour and stopped after 4 or 8 hrs by adding 4×SDS-PAGE sample buffer. Samples were then boiled for 5 min at 95° C. and subjected to SDS-PAGE on 6% polyacrylamide gel. After electrophoresis, separated proteins were electroblotted onto a PVDF membrane, blocked, and incubated with a monoclonal antibody (A5) specific for apo(a). HRP-conjugated goat anti-mouse IgG secondary antibody was used to develop a signal in the presence of a chemiluminescence reagent and images were captured using a ChemiDoc system (Bio-Rad). Band intensity (BI) of western-blots were quantified using IMAGELAB software for recombinant Lp(a) formation using the following equation: % r-Lp(a)=BI(Lp(a))/[BI(Lp(a))+BI(apo(a))]. A Two-Way ANOVA with Tukey post-hoc test was used to analyze the data in GraphPad Prism 7.0.
Covalent binding between apo(a) and LDL was assessed over time by appearance of Lp(a) protein on a Western blot. Using serum-free HEK293 cell-conditioned medium, Lp(a) formation was evaluated after incubation of 17K r-apo(a) with LDL from 0-8 hours; isolated Lp(a), 17K apo(a) alone, and media alone were used as controls.
Next, the effect of orticumab on inhibition of covalent binding between apo(a) and LDL was assessed by Western blot analysis. 17K r-apo(a) (5 nM) was incubated with LDL (100 nM) in serum free HEK293 cell-conditioned medium for 4 hours at 37° C. in the presence of orticumab at 0.1, 1, 5, and 10 μM.
To determine whether inhibition of Lp(a) formation occurs at a later time point when Lp(a) formation appears to be maximal, the Western blot experiments were repeated after a 0- and 8-hour incubation of 5 nM 17K r-apo(a) and 100 nM LDL in the presence of orticumab at 0.01, 0.1, 1, and 10 μM in serum free HEK293 cell-conditioned medium (FIG. 9). The results were then quantified (FIG. 10) and analyzed.

[6] = target: T2, non-covalent binding between apo(a) and LDL (Homo sapiens, UniProt P04114); experiment: Fluorescence assay of non-covalent binding: quenching of Flu-LDL by 17K r-apo(a)
T2 construct: made in house; host or cells: apo(a): stably-expressing HEK293 cell lines; LDL: plasma of a healthy donor
T2 sequence (P04114 28-4563): as above

Flu-LDL = target: T3, Flu-LDL (Homo sapiens, UniProt P04114); experiment: Antibody interference with Flu-LDL fluorescence (Flu-LDL alone); details: Flu-LDL 100 nM; orticumab 0.1-1000 nM; FIG. 5
T3 construct: from tissue; host or cells: plasma of a healthy donor
T3 sequence (P04114 28-4563): as above

Sequence of purified human LDL, carrying apolipoprotein B100 (human) (P04114 28-4563): as above

percent inhibition of Lp(a) formation [1] | percent inhibition of Lp(a) formation [2] | percent inhibition of Lp(a) formation [3] | percent inhibition of Lp(a) formation [4] | Substance | percent inhibition of Lp(a) formation ([5]; 0.01 μM orticumab, 8-hour incubation, 17K r-apo(a) 5 nM, LDL 100 nM) | percent inhibition of Lp(a) formation ([5]; 0.1 μM orticumab, 8-hour incubation, 17K r-apo(a) 5 nM, LDL 100 nM) | percent inhibition of Lp(a) formation ([5]; 10 μM orticumab, 8-hour incubation, 17K r-apo(a) 5 nM, LDL 100 nM) | Lp(a) band on Western blot ([5]; 10 μM orticumab, 4 hours at 37° C., 17K r-apo(a) 5 nM, LDL 100 nM, FIG. 7) | Inhibition of Lp(a) formation, in words ([5]; 8-hour incubation, orticumab 0.01, 0.1, 1 and 10 μM, FIG. 9, 10) | Reduction of covalent Lp(a) compared with control antibodies ([5]; 17K r-apo(a) 5 nM, LDL 100 nM) | Reduction of covalent Lp(a) compared with control antibodies ([5]; 17K r-apo(a) 5 nM, LDL 100 nM, listed as Orticumab) | Inhibition of covalent binding between apo(a) and LDL, overall statement ([5]; orticumab 0.01, 0.1, 1 and 10 μM, Western blot) | percent inhibition of Lp(a) formation ([5]; orticumab "At 1" (unit not given), 8-hour incubation, 17K r-apo(a) 5 nM, LDL 100 nM) | Concentration at which the antibody interfered with fluorescence ([6]; Flu-LDL 30 nM, 17K r-apo(a) 300 nM, FIG. 4A) | Concentration of maximum response in dose-response titration ([6]; de-quenching of Flu-LDL fluorescence, FIG. 3) | Inhibition of non-covalent binding between apo(a) and LDL, overall statement ([6]; fluorescence assay, summary of Example 3) | Alleviation of quenching of Flu-LDL by 17K apo(a), antibody titration ([6]; orticumab 0-1000 nM, Flu-LDL 50 nM, 17K r-apo(a) 500 nM, FIG. 3) | Inhibition of non-covalent apo(a)/Flu-LDL binding in 17K apo(a) titration ([6]; orticumab 1000 nM, Flu-LDL 50 nM, 17K r-apo(a) 0-1000 nM, FIG. 2) | De-quenching of Flu-LDL fluorescence at lower concentrations ([6]; orticumab 0.4096-100 nM, Flu-LDL 30 nM, 17K r-apo(a) 300 nM, FIG. 4A) | Effect on fluorescence of Flu-LDL alone (Flu-LDL)
21.4% | 35% | 25.8% | 73.5% | orticumab (antibody) |  |  |  |  |  |  |  |  |  |  |  |  |  |  |  | 
 |  |  |  | orticumab: human monoclonal antibody against apoB100 epitope P45 (residues 661-680); heavy chain SEQ ID No: 10, light chain SEQ ID No: 11 | 21.37% | 25.8% | 73.46% | Disappearance of the Lp(a) band | significantly inhibited Lp(a) formation; also recorded: decreased Lp(a) covalent assembly at the lowest concentration tested | behaves similarly in reducing covalent Lp(a) | as effective as the anti-apoB or anti-apo(a) control antibodies | inhibited | 34.99% | ≤ 0.4 nM | 1000 nM | very effective in inhibiting non-covalent binding | able to alleviate the quenching; also recorded: much lower than that of the polyclonal anti-apoB antibody or EACA | inhibited the binding; also recorded: on par with the anti-apo(a) antibody; also recorded: interfered with the apo(a) and Flu-LDL interaction | not able to de-quench; also recorded: no effect on de-quenching the fluorescence | increased the fluorescence of Flu-LDL to a higher level; also recorded: enhanced fluorescent signal
